# Source: IntAct's records for PubMed 25988182
# B1: Regulator of RpoS (Escherichia coli (strain K12)), P0AEV1 (parent)
# chain: MTQPLVGKQILIVEDEQVFRSLLDSWFSSLGATTVLAADGVDALELLGGFTPDLMICDIAMPRMNGLKLLEHIRNRGDQTPVLVISATENMADIAKALRLGVEDVLLKPVKDLNRLREMVFACLYPSMFNSRVEEEERLFRDWDAMVDNPAAAAKLLQELQPPVQQVISHCRVNYRQLVAADKPGLVLDIAALSENDLAFYCLDVTRAGHNGVLAALLLRALFNGLLQEQLAHQNQRLPELGALLKQVNHLLRQANLPGQFPLLVGYYHRELKNLILVSAGLNATLNTGEHQVQISNGVPLGTLGNAYLNQLSQRCDAWQCQIWGTGGRLRLMLSAE
# partner: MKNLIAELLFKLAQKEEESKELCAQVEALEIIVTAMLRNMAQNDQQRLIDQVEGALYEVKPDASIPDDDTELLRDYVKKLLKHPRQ
# Variants of: B1
# Conditions: with irap_ecoli iraP
row,effect of a mutation on the interaction,Variant
1,disrupting interaction strength,MTQPLVGKQILIVEDEQVFRSLLDSWFSSLGATTVLAADGVDALELLGGFTPDLMICPIAMPRMNGLKLLEHIRNRGDQTPVLVISATENMADIAKALRLGVEDVLLKPVKDLNRLREMVFACLYPSMFNSRVEEEERLFRDWDAMVDNPAAAAKLLQELQPPVQQVISHCRVNYRQLVAADKPGLVLDIAALSENDLAFYCLDVTRAGHNGVLAALLLRALFNGLLQEQLAHQNQRLPELGALLKQVNHLLRQANLPGQFPLLVGYYHRELKNLILVSAGLNATLNTGEHQVQISNGVPLGTLGNAYLNQLSQRCDAWQCQIWGTGGRLRLMLSAE [D58P]
2,decreasing interaction strength,MTQPLVGKQILIVEDEQVFRSLLDSWFSSLGATTVLAADGVDALELLGGFTPDLMICAIAMPRMNGLKLLEHIRNRGDQTPVLVISATENMADIAKALRLGVEDVLLKPVKDLNRLREMVFACLYPSMFNSRVEEEERLFRDWDAMVDNPAAAAKLLQELQPPVQQVISHCRVNYRQLVAADKPGLVLDIAALSENDLAFYCLDVTRAGHNGVLAALLLRALFNGLLQEQLAHQNQRLPELGALLKQVNHLLRQANLPGQFPLLVGYYHRELKNLILVSAGLNATLNTGEHQVQISNGVPLGTLGNAYLNQLSQRCDAWQCQIWGTGGRLRLMLSAE [D58A]
